From patent US20260232827A1 (Zymeworks, published 2026) come the findings set out here.

For assay [1], the target named is T1, Construct 7 (NaPi2b del 317-326) (human, UniProt O95436 1-690).
T1 construct: Deletion construct on HEK293-6e cells; also called CL_#29921
T1 sequence: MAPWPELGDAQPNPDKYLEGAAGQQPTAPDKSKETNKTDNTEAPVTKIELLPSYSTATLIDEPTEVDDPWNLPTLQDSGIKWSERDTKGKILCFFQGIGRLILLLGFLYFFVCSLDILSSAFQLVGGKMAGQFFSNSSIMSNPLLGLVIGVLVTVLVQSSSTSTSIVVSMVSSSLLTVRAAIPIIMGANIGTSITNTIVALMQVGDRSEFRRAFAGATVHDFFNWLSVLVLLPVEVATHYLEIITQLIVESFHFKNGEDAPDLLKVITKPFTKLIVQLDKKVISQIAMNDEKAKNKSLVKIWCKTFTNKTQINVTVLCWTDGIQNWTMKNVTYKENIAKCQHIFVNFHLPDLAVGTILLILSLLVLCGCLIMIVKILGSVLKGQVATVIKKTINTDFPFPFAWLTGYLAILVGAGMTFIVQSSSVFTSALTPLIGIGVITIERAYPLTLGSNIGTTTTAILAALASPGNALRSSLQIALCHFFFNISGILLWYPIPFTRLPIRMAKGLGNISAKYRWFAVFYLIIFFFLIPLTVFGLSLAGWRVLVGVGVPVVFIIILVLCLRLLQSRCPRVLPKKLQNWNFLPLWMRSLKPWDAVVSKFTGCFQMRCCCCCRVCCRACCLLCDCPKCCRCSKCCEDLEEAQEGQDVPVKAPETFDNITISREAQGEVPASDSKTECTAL
Description: flow cytometry, HEK293-6e cells transfected with Construct 7. Background: A flow cytometer gives signals particle by particle.
Description: (§1) Following transfection, cells were seeded at 50,000 cells/well in conical-bottom 96-well plates and treated with a serial dilution of test antibody for 24 hours at 4° C. to prevent internalization. Cells were treated with final concentrations of all humanized antibodies of 200, 20, or 2 nM. Cells were treated with final concentrations of the reference anti-NaPi2a rabbit antibody of 50, 5, or 0.5 nM. […] Following incubation and washing, fluorescence was detected by flow cytometry on a BD LSRFortessa™ Cell Analyzer (BD Biosciences, Franklin Lake, NJ) with 1,000 minimum events collected per well. […] Background-subtracted AF647 Mean Fluorescence Intensity (MFI) values were calculated by subtracting the average MFI of three technical replicates of unstained (no primary antibody) cells.

The target of assay [2] is T2, human sodium-dependent phosphate transporter 2B (NaPi2b) (human, UniProt O95436 1-690).
T2 construct: UniProt ID is given as 095436 [sic]; also called hNaPi2b; Hu NaPi2b
T2 sequence: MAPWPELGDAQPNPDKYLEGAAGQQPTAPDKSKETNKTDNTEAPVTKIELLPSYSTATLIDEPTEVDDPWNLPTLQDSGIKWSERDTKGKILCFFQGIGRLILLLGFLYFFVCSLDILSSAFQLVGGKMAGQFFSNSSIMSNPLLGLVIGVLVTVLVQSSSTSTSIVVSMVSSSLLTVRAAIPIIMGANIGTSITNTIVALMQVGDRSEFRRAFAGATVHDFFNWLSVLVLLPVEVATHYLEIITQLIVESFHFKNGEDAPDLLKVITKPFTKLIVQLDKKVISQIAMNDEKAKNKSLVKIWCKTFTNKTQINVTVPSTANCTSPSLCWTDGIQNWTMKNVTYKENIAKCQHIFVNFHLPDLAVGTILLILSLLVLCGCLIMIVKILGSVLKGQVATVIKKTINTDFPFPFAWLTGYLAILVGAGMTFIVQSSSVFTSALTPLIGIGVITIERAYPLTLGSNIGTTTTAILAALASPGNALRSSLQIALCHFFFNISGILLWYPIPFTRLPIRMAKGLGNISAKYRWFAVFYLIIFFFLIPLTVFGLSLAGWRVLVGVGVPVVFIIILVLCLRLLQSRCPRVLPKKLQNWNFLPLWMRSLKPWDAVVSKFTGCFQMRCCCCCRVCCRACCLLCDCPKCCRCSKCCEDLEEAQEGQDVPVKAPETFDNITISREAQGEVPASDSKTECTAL
The assay is described as follows: flow cytometry on IGROV-1 cells (endogenous NaPi2b), 24 h at 4 C, anti-human IgG Fc AF647, APC-A GeoMean.
Description: Cells were maintained under standard culture conditions (37° C./5% CO₂) until assay set-up. […] Cells were removed from culture vessels using Cell Dissociation Buffer (Invitrogen, Waltham, MA), seeded at 50,000 cells/well in conical-bottom 96-well plates, and treated with test antibody or antibody-drug conjugate for 24 hours at 4° C. to prevent internalization. […] Following incubation and washing, fluorescence was detected by flow cytometry on a BD LSRFortessa™ Cell Analyzer (BD Biosciences, Franklin Lake, NJ) with 1,000 minimum events collected per well.

In assay [3] the target is T3, Construct 6 (NaPi2b del 317-333) (human, UniProt O95436 1-690).
T3 construct: Deletion construct on HEK293-6e cells; also called CL_#29919
T3 sequence: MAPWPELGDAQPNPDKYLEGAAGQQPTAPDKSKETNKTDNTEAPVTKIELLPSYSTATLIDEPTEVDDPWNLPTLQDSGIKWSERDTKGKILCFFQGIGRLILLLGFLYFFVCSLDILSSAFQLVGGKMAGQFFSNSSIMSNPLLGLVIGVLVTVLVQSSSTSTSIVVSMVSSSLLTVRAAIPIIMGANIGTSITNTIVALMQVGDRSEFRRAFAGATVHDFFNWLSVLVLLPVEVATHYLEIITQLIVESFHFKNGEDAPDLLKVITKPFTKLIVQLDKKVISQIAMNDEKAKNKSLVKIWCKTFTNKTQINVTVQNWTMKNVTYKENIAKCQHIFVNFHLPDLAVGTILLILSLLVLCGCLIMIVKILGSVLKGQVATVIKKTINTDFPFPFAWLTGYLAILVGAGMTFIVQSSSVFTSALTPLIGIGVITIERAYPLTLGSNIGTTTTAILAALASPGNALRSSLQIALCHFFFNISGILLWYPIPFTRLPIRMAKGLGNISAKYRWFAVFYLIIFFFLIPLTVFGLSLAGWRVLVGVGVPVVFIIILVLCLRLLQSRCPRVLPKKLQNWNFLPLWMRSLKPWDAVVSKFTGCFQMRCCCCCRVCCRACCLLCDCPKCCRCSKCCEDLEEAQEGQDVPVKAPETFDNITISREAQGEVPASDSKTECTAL
The assay is described as follows: flow cytometry, HEK293-6e cells transfected with Construct 6.
Description: as §1

In a further assay the target is T4, mouse NaPi2b (mouse, UniProt Q9DBP0 1-697).
T4 construct: also called Ms NaPi2b; CL #13476
T4 sequence: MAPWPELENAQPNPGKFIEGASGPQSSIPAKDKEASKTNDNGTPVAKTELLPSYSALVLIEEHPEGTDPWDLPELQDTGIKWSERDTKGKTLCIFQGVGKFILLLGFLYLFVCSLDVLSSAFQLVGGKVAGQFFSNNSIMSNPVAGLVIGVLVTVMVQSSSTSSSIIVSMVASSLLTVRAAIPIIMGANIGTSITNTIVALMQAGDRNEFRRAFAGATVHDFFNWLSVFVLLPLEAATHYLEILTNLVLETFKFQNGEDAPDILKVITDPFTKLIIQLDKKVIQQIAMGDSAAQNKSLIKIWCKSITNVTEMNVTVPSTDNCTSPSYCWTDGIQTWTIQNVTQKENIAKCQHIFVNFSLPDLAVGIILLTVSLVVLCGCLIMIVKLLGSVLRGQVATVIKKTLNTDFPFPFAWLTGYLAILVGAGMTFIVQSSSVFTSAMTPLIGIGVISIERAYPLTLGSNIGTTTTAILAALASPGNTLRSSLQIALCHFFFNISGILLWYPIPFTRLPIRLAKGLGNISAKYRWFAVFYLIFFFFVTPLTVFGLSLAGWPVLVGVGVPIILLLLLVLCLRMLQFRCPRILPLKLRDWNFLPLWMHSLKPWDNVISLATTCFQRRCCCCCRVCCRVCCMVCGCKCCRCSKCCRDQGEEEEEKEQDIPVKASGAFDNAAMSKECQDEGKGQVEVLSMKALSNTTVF
Description: flow cytometry, HEK293-6e cells transfected with mouse NaPi2b; apparent Kd above the highest concentration tested.

B1: v18993 (lifastuzumab), reference anti-NaPi2b antibody (antibody, human IgG1, kappa)
heavy 1: GEVQLVESGGGLVQPGGSLRLSCAASGFSFSDFAMSWVRQAPGKGLEWVATIGRVAFHTYYPDSMKGRFTISRDNSKNTLYLQMNSLRAEDTAVYYCARHRGFDVGHFDFWGQGTLVTVSSASTKGPSVFPLAPSSKSTSGGTAALGCLVKDYFPEPVTVSWNSGALTSGVHTFPAVLQSSGLYSLSSVVTVPSSSLGTQTYICNVNHKPSNTKVDKKVEPKSCDKTHTCPPCPAPELLGGPSVFLFPPKPKDTLMISRTPEVTCVVVDVSHEDPEVKFNWYVDGVEVHNAKTKPREEQYNSTYRVVSVLTVLHQDWLNGKEYKCKVSNKALPAPIEKTISKAKGQPREPQVYVYPPSRDELTKNQVSLTCLVKGFYPSDIAVEWESNGQPENNYKTTPPVLDSDGSFALVSKLTVDKSRWQQGNVFSCSVMHEALHNHYTQKSLSLSPG
heavy 2: not shown
light: GDIQMTQSPSSLSASVGDRVTITCRSSETLVHSSGNTYLEWYQQKPGKAPKLLIYRVSNRFSGVPSRFSGSGSGTDFTLTISSLQPEDFATYYCFQGSFNPLTFGQGTKVEIKRTVAAPSVFIFPPSDEQLKSGTASVVCLLNNFYPREAKVQWKVDNALQSGNSQESVTEQDSKDSTYSLSSTLTLSKADYEKHKVYACEVTHQGLSSPVTKSFNRGEC
As to B1, the binding result in assay [1] is reported as “no binding (tested: 200 nM)”.

B2: v38591 (humanized anti-NaPi2b antibody, wild-type Fc) (antibody, human IgG1, kappa)
heavy: not shown
light: DVQMTQSPSSLSASVGDRVTITCRASQDVYSYLNWYQQKPGKAVKLLIYYTSRLQSGVPSRFSGSGSGTDYTLTISSLQPEDFATYYCQQYNIFPWTFGQGTKLEIKRTVAAPSVFIFPPSDEQLKSGTASVVCLLNNFYPREAKVQWKVDNALQSGNSQESVTEQDSKDSTYSLSSTLTLSKADYEKHKVYACEVTHQGLSSPVTKSFNRGEC
notes: also called v38591 Wild-type; H1L2
By EC50 (read off the curve) is commonly meant the midpoint of the concentration-response curve. A low value points to a more potent agent. In the case of B2, the “EC50 (read off the curve)” value in assay [2] was about 2 nM.

B3: v18992 (MX35), reference anti-NaPi2b antibody (antibody, human IgG1, kappa)
heavy 1: GQVQLVQSGAEVVKPGASVKMSCKASGYTFTGYNIHWVKQAPGQGLEWIGAIYPGNGDTSYKQKFRGRATLTADTSTSTVYMELSSLRSEDSAVYYCARGETARATFAYWGQGTLVTVSSASTKGPSVFPLAPSSKSTSGGTAALGCLVKDYFPEPVTVSWNSGALTSGVHTFPAVLQSSGLYSLSSVVTVPSSSLGTQTYICNVNHKPSNTKVDKKVEPKSCDKTHTCPPCPAPELLGGPSVFLFPPKPKDTLMISRTPEVTCVVVDVSHEDPEVKFNWYVDGVEVHNAKTKPREEQYNSTYRVVSVLTVLHQDWLNGKEYKCKVSNKALPAPIEKTISKAKGQPREPQVYVYPPSRDELTKNQVSLTCLVKGFYPSDIAVEWESNGQPENNYKTTPPVLDSDGSFALVSKLTVDKSRWQQGNVFSCSVMHEALHNHYTQKSLSLSPG
heavy 2: not shown
light: GDIQMTQSPSSLSASVGDRVTITCSASQDIGNFLNWYQQKPGKTVKVLIYYTSSLYSGVPSRFSGSGSGTDYTLTISSLQPEDFATYYCQQYSKLPLTFGQGTKLELKRTVAAPSVFIFPPSDEQLKSGTASVVCLLNNFYPREAKVQWKVDNALQSGNSQESVTEQDSKDSTYSLSSTLTLSKADYEKHKVYACEVTHQGLSSPVTKSFNRGEC
Regarding B3, the binding result in assay [3] is on record as “no binding (tested: 200 nM)”. Further, the Kd in the assay with mouse NaPi2b is over 200 nM.
